B1: Synp-HYBT: synthetic hypoxia-inducible promoter, SEQ ID NO: 2; 4 HRE3 and a YB-TATA minimal promoter (nucleic acid)
DNA: ACCTTGAGTACGTGCGTCTCTGCACGTATGGCGATTAAGACCTTGAGTACGTGCGTCTCTGCACGTATGGCGATTAAGACCTTGAGTACGTGCGTCTCTGCACGTATGGCGATTAAGACCTTGAGTACGTGCGTCTCTGCACGTATGGCGATTAATCCATATGCTCTAGAGGGTATATAATGGGGGCCA
B2: Synp-RTV-016: synthetic hypoxia-inducible promoter, SEQ ID NO: 1; 6 HRE2 and CMV minimal promoter (nucleic acid)
DNA: CTGCACGTAGATGATGCGTAGCTAGTAGTCTGCACGTAGATGATGCGTAGCTAGTAGTCTGCACGTAGATGATGCGTAGCTAGTAGTCTGCACGTAGATGATGCGTAGCTAGTAGTCTGCACGTAGATGATGCGTAGCTAGTAGTCTGCACGTAGTAGTCGTATGCTGATGCGCAGTTAGCGTAGCTGAGGTACCGTCGACGATATCGGATCCAGGTCTATATAAGCAGAGCTCGTTTAGTGAACCGTCAGATCGCCTAGATACGCCATCCACGCTGTTTTGACCTCCATAGAAGATCGCCACC
B3: Synp-HV3C: synthetic hypoxia-inducible promoter, SEQ ID NO: 3; 4 HRE3 and CMV minimal promoter (nucleic acid)
DNA: ACCTTGAGTACGTGCGTCTCTGCACGTATGGCGATTAAGACCTTGAGTACGTGCGTCTCTGCACGTATGGCGATTAAGACCTTGAGTACGTGCGTCTCTGCACGTATGGCGATTAAGACCTTGAGTACGTGCGTCTCTGCACGTATGGCGATTAATCCATATGCAGGTCTATATAAGCAGAGCTCGTTTAGTGAACCGTCAGATCGCCTAGATACGCCATCCACGCTGTTTTGACCTCCATAGAAGATCGCCACC
B4: Synp-RTV-017: synthetic forskolin-inducible promoter, SEQ ID NO: 4; 8× AP1 TFBS and a CMV-MP (nucleic acid)
DNA: TGAGTCAGATGATGCGTAGCTAGTAGTTGAGTCAGATGATGCGTAGCTAGTAGTTGAGTCAGATGATGCGTAGCTAGTAGTTGAGTCAGATGATGCGTAGCTAGTAGTTGAGTCAGATGATGCGTAGCTAGTAGTTGAGTCAGATGATGCGTAGCTAGTAGTTGAGTCAGATGATGCGTAGCTAGTAGTTGAGTCAGTAGTCGTATGCTGATGCGCAGTTAGCGTAGCTGAGGTACCGTCGACGATATCGGATCCAGGTCTATATAAGCAGAGCTCGTTTAGTGAACCGTCAGATCGCCTAGATACGCCATCCACGCTGTTTTGACCTCCATAGAAGATCGCCACC
B5: Synp-FORCYB1: synthetic forskolin-inducible promoter, SEQ ID NO: 6; 5× cAMPRE and 4× AP1 TFBS and YB-TATA-MP (nucleic acid)
DNA: TGACGTCACGATTACCATTGACGTCACGATTACCATTGACGTCACGATTACCATTGACGTCACGATTACCATTGACGTCAGCGATTAAGATGACTCAGCGATTAAGATGACTCAGCGATTAAGATGACTCAGCGATTAAGATGACTCAGCGATTAATCCATATGCTCTAGAGGGTATATAATGGGGGCCACTAGTCTACTACCAGAAAGCTTGGTACCGAGCTCGGATCCAGCCACC
B6: Synp-RTV-019: synthetic forskolin-inducible promoter, SEQ ID NO: 5; 3×ATF6, 4× AP1 and 3× HIF TFBS and a CMV-MP (nucleic acid)
DNA: TGACGTGCTGATGATGCGTAGCTAGTAGTTGACGTGCTGATGATGCGTAGCTAGTAGTTGACGTGCTGATGATGCGTAGCTAGTAGTTGAGTCAGATGATGCGTAGCTAGTAGTTGAGTCAGATGATGCGTAGCTAGTAGTTGAGTCAGATGATGCGTAGCTAGTAGTTGAGTCAGATGATGCGTAGCTAGTAGTCTGCACGTAGATGATGCGTAGCTAGTAGTCTGCACGTAGATGATGCGTAGCTAGTAGTCTGCACGTAGATGATGCGTAGCTAGTAGTGCAGTTAGCGTAGCTGAGGTACCGTCGACGATATCGGATCCAGGTCTATATAAGCAGAGCTCGTTTAGTGAACCGTCAGATCGCCTAGATACGCCATCCACGCTGTTTTGACCTCCATAGAAGATCGCCACC

Assays:
[1] = tested on: HEK293-T cells; assay: Luciferase expression from hypoxia-inducible promoters in transiently transfected HEK293-T cells; assay type: cell-based, human; details: for luciferase activity in normoxia: normoxic conditions, FIG. 4
Protocol: HEK293-T are seeded at a density of 20%. Once they reached a confluence between 60 and 80%, the media is changed with DMEM (#21885-025—Thermo Scientific) supplemented with 10% FBS (Gibco, 26140). After 3 hours, the cells are transfected by a transfection mix. The transfection mix is prepared by adding DNA (2 μg per 6 well plate) and PEI 25 kDA (#23966-1—Polyscience) in a ratio of 1:3 in sterile DPBS (#14190169—ThermoFisher Scientific). After mixing, the transfection mix is incubated at room temperature for 30 minutes and then added directly to the cells. After 16 to 18 h post transfection, the media is changed to DMEM+2% FBS. The transfected DNA is one of the vectors where the promoter construct (Synp-RTV-016, Synp-HYBT and Synp-HV3C) or a control promoter (CMV-IE) are used to drive luciferase expression and P-galactosidase containing pcDNA6 plasmid. The β-galactosidase containing plasmid is used as internal control for transfection efficiency (Thermofisher, V22020).
After transfection the cells are incubated for 24 hrs in normoxic conditions (20% oxygen). Induction of the promoters is assessed by using luciferase activity after 24 hrs in normoxia or hypoxia (5% oxygen, 10% carbon dioxide and 85% nitrogen). Hypoxia is achieved by gas displacement in a sealed hypoxia chamber.
(§1) Luciferase activity is measured using LARII (Dual Luciferase Reporter 1000 assay system, Promega, E1980).
Media is removed from the cells at the respective time point (0, 3, 5, 24 hrs after induction). The cells are washed once in 300 μl of DPBS. Cells are lysed by adding 100 μl of passive lysis buffer to the cells and incubation with rocking for 15 minutes. The cell debris is pelleted by centrifugation of the plate at max speed in a benchtop centrifuge for 1 min. 10 μl of supernatant is pipetted into white 96-well plate and luminescence measured by addition of 50 μl of LARII substrate.
β-galactosidase activity is measured as per manufacturer's instructions (Mammalian PGalactosidase Assay Kit, 75707/75710, Thermo Scientific) using 25 µl of lysate. 25 μl of lysate is transferred into a microplate well and mixed with 25 μl of β-galactosidase Assay Reagent, equilibrated to room temperature. The mixture is incubated at 37° C. for 30 min and absorbance measured at 405 nm.
(§2) Luciferase readouts are normalised to β-galactosidase to produce normalised relative luminometer units (RLUs).

[2] = tested on: HEK293-F cells; assay: Luciferase expression from hypoxia-inducible promoters in transiently transfected HEK293-F cells; assay type: cell-based, human; details: cells placed in hypoxia at 0 hours; FIG. 3
Protocol: 40 ml of cells are grown in a 250 ml vented Erlenmeyer flask (Sigma-Aldrich CLS431144) at 37° C., 20% O2, 8% CO2 with agitation at 100 rpm. Cells are seeded as described in the manufacturer's instructions (300,000 cells/ml). HEK293-F are obtained from Thermofisher, R79007.
One day before transfection, the cells are counted using a haemocytometer and split to 500,000 cells/ml.
On the day of transfection, the cells are seeded to 1,000,000 cells/ml in 500 µl of appropriate medium (Freestyle 293 expression medium, 12338002) in a 24 well plate. […] of DNA per well is then added to 10 μl of OptiMem medium (Thermofisher; 11058021) and incubated for 5 minutes at room temperature.
Concurrently, 0.625 μl of Max reagent (Thermofisher, 16447100) is made up to […] by addition of OptiMem and incubated for 5 minutes at room temperature. After this incubation, both mixes are added to the same tube and incubated at room temperature for 25-30 minutes. The DNA/Max reagent mix (20 μl/well) is then added directly to the cells and the cells incubated at 37° C., 8% CO2 with agitation at 100 rpm. […]
After transfection the cells are incubated for 24 hrs in normoxia conditions (20% oxygen) before being switched to a gas mix of 5% oxygen, 10% carbon dioxide and 85% nitrogen (hypoxia). […] Induction of the promoters is assessed by using luciferase activity after 3, 5 and 24 hrs in hypoxia.
as §1
Media is removed from the cells at the respective time point (0, 3, 5, 24 hrs after induction). […] 10 μl of supernatant is pipetted into white 96-well plate and luminescence measured by addition of 50 μl of LARII substrate.
β-galactosidase activity is measured as per manufacturer's instructions (Mammalian PGalactosidase Assay Kit, 75707/75710, Thermo Scientific) using 25 µl of lysate. […] The mixture is incubated at 37° C. for 30 min and absorbance measured at 405 nm.
as §2

[3] = tested on: Huh7 (liver); assay: Luciferase expression from forskolin-inducible promoters in Huh7 cells; assay type: cell-based, human; details: for luciferase activity after induction, promoter expressed from an AAV vector: 20 μM forskolin or 7.2 μM NKH477; for luciferase activity after induction, promoter expressed from an AAV vector / luciferase activity without induction, promoter expressed from an AAV vector: FIG. 8; for luciferase activity after induction: 20 μM forskolin; for luciferase activity after induction / luciferase activity without induction: FIG. 6; for luciferase activity without induction, promoter expressed from an AAV vector: AAV vector containing ITRs
Protocol: Luciferase activity was measured without induction and after induction with 20 μM forskolin or 7.2 μM NKH477.

[4] = tested on: C2C12 (muscle) cells; assay: Luciferase expression from forskolin-inducible promoter in C2C12 cells; assay type: cell-based, mouse; details: FIG. 7
Description: CMV-IE expression was not analyzed under induced conditions, and thus no result is shown in the graph.

Row | Molecule | luciferase expression / inducibility after 24 hours in hypoxia versus normoxia [1] | luciferase activity in normoxia [1] | luciferase activity over time in hypoxia [2] | luciferase activity after induction, promoter expressed from an AAV vector [3] | luciferase activity after induction [3] | luciferase activity without induction, promoter expressed from an AAV vector [3] | luciferase activity without induction [3] | luciferase activity after induction ([4]; 20 μM forskolin) | luciferase activity without induction [4]
1 | B1 | induced to a varying level | almost no luciferase activity | increase in luciferase activity with time |  |  |  |  |  | 
2 | B2 | lowest | almost no luciferase activity | increase in luciferase activity with time |  |  |  |  |  | 
3 | B3 | highest | almost no luciferase activity | increase in luciferase activity with time |  |  |  |  |  | 
4 | B4 |  |  |  | high activity | high activity | low background activity | low background activity |  | 
5 | B5 |  |  |  | high activity |  | low background activity |  |  | 
6 | B6 |  |  |  | high activity | high activity | low background activity | low background activity | high activity | low background activity

Source: patent US20230407327A1, “INDUCIBLE PROMOTER FOR VIRAL VECTOR PRODUCTION” (ASKLEPIOS BIOPHARMACEUTICAL, INC., priority 2020, published 2023)
